Results reported in publication PMC6193735, “Defining LytTR Regulatory Systems”.

Target: T1, HdrR (Streptococcus mutans UA140, UniProt Q8DSE1 1-133)
T1 sequence: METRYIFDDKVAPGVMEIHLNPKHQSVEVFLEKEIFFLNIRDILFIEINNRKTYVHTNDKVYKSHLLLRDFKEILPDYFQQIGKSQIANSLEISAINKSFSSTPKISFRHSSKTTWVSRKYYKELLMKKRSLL
Assay: EMSA; 1 ng probe, 10-30 ug HdrR as printed, 20 ul; unlabeled wild-type competitor 50 and 200 ng; EMSA: 20 ul, 25 C, 20 min; binding buffer not printed (as ref 62); oligos annealed in 50 mM Tris-HCl pH 8.0, 10 mM MgCl2, 50 mM NaCl, 1 mM EDTA
Conditions: protein: recombinant; tags: His6 (HdrR-His6, pET29b); chain copies: 2; label: 5' digoxigenin-11-ddUTP on forward strand (probe); blunt

B1: hdrRMP (wild-type hdrRM operon direct repeat probe) (dsDNA)
DNA 1: TAATGGTTACCTCTTAGACATTAAAAATGACCACTTAATAGAAAAG
DNA 2: CTTTTCTATTAAGTGGTCATTTTTAATGTCTAAGAGGTAACCATTA
- binding result: binds
